Test results taken from the supplement of paper PMC9112550, “Optimization of the antimicrobial peptide Bac7 by deep mutational scanning” (BMC Biology, 2022).

These sequences were tested on Escherichia coli TOP10 (assay: shrunken log2 fold change of peptide-encoding DNA abundance (4.5 h post-induction vs induction); higher = less antimicrobial activity (less host growth inhibition)). Settings: time post-induction: 4.5 h; library: site-saturation at positions 5, 18, 19, 20.
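Further: peptides expressed intracellularly from a pBAD plasmid library in pooled LB shake-flask culture, induced with 0.3% L-arabinose, DNA abundance read by NGS, three biological replicates, DESeq2 with apeglm shrinkage.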

Sequence | shrunken log2 fold change
RRIRRRPPRLPRPRPRPDTWPRP | -0.131
RRIRRRPPRLPRPRPRPDVIPRP | -0.068
RRIRRRPPRLPRPRPRPEAFPRP | 0.842
RRIRRRPPRLPRPRPRPECDPRP | 0.889
RRIRRRPPRLPRPRPRPEDNPRP | 0.066
RRIRRRPPRLPRPRPRPEDTPRP | 0.0364
RRIRRRPPRLPRPRPRPEEEPRP | 0.855
RRIRRRPPRLPRPRPRPEEQPRP | 0.231
RRIRRRPPRLPRPRPRPEGMPRP | 1.27
RRIRRRPPRLPRPRPRPEHPPRP | 3.32
RRIRRRPPRLPRPRPRPEIWPRP | 0.621
RRIRRRPPRLPRPRPRPEKHPRP | 0.121
RRIRRRPPRLPRPRPRPEKRPRP | 0.296
RRIRRRPPRLPRPRPRPELDPRP | 0.122
RRIRRRPPRLPRPRPRPELWPRP | 0.518
RRIRRRPPRLPRPRPRPEPKPRP | 1.46
RRIRRRPPRLPRPRPRPEPMPRP | 0.882
RRIRRRPPRLPRPRPRPEPWPRP | 0.538
RRIRRRPPRLPRPRPRPEQEPRP | 0.0308
RRIRRRPPRLPRPRPRPEQQPRP | 0.22
RRIRRRPPRLPRPRPRPERDPRP | 0.423
RRIRRRPPRLPRPRPRPETHPRP | 0.697
RRIRRRPPRLPRPRPRPEVDPRP | 0.0409
RRIRRRPPRLPRPRPRPEVEPRP | 0.0165
RRIRRRPPRLPRPRPRPEVTPRP | 0.0976

Sequence | shrunken log2 fold change
RRIRRRPPRLPRPRPRPEWYPRP | -0.128
RRIRRRPPRLPRPRPRPEYIPRP | -0.199
RRIRRRPPRLPRPRPRPFAAPRP | 0.98
RRIRRRPPRLPRPRPRPFDHPRP | -0.242
RRIRRRPPRLPRPRPRPFDMPRP | -0.0228
RRIRRRPPRLPRPRPRPFDYPRP | -0.0528
RRIRRRPPRLPRPRPRPFEDPRP | -0.0157
RRIRRRPPRLPRPRPRPFEGPRP | 0.0216
RRIRRRPPRLPRPRPRPFEIPRP | -0.00184
RRIRRRPPRLPRPRPRPFESPRP | -0.0115
RRIRRRPPRLPRPRPRPFFMPRP | -0.0188
RRIRRRPPRLPRPRPRPFGEPRP | 0.412
RRIRRRPPRLPRPRPRPFGHPRP | 0.0281
RRIRRRPPRLPRPRPRPFGIPRP | 0.0306
RRIRRRPPRLPRPRPRPFIMPRP | -0.251
RRIRRRPPRLPRPRPRPFLLPRP | 0.0441
RRIRRRPPRLPRPRPRPFLNPRP | -0.0441
RRIRRRPPRLPRPRPRPFMWPRP | 0.00755
RRIRRRPPRLPRPRPRPFNKPRP | -0.712
RRIRRRPPRLPRPRPRPFPPPRP | 0.222
RRIRRRPPRLPRPRPRPFPYPRP | -0.28
RRIRRRPPRLPRPRPRPFQEPRP | -0.264
RRIRRRPPRLPRPRPRPFQSPRP | 0.0629
RRIRRRPPRLPRPRPRPFQTPRP | 0.0413
RRIRRRPPRLPRPRPRPFRGPRP | -0.105

Sequence | shrunken log2 fold change
RRIRRRPPRLPRPRPRPFRMPRP | -0.0671
RRIRRRPPRLPRPRPRPFRNPRP | -0.0392
RRIRRRPPRLPRPRPRPFRVPRP | 0.12
RRIRRRPPRLPRPRPRPFSLPRP | 0.0919
RRIRRRPPRLPRPRPRPFVEPRP | -0.142
RRIRRRPPRLPRPRPRPFVSPRP | -0.0868
RRIRRRPPRLPRPRPRPFYEPRP | -0.0293
RRIRRRPPRLPRPRPRPFYHPRP | 0.0115
RRIRRRPPRLPRPRPRPGAKPRP | 0.701
RRIRRRPPRLPRPRPRPGCVPRP | 0.329
RRIRRRPPRLPRPRPRPGDWPRP | 0.465
RRIRRRPPRLPRPRPRPGERPRP | 0.0829
RRIRRRPPRLPRPRPRPGGKPRP | 0.0881
RRIRRRPPRLPRPRPRPGHRPRP | 0.192
RRIRRRPPRLPRPRPRPGIAPRP | 0.185
RRIRRRPPRLPRPRPRPGICPRP | 0.0771
RRIRRRPPRLPRPRPRPGINPRP | 0.016
RRIRRRPPRLPRPRPRPGLFPRP | 0.389
RRIRRRPPRLPRPRPRPGMCPRP | 0.269
RRIRRRPPRLPRPRPRPGMPPRP | 0.463
RRIRRRPPRLPRPRPRPGMQPRP | 0.245
RRIRRRPPRLPRPRPRPGMRPRP | 0.792
RRIRRRPPRLPRPRPRPGMYPRP | -0.0527
RRIRRRPPRLPRPRPRPGNPPRP | 0.608
RRIRRRPPRLPRPRPRPGPKPRP | 0.255

Sequence | shrunken log2 fold change
RRIRRRPPRLPRPRPRPGPWPRP | 0.523
RRIRRRPPRLPRPRPRPGQPPRP | 0.262
RRIRRRPPRLPRPRPRPGQRPRP | 0.386
RRIRRRPPRLPRPRPRPGRDPRP | 0.717
RRIRRRPPRLPRPRPRPGREPRP | -0.0226
RRIRRRPPRLPRPRPRPGRHPRP | 0.212
RRIRRRPPRLPRPRPRPGTHPRP | 0.243
RRIRRRPPRLPRPRPRPGTNPRP | 0.0926
RRIRRRPPRLPRPRPRPGVGPRP | 0.59
RRIRRRPPRLPRPRPRPGYMPRP | 0.0939
RRIRRRPPRLPRPRPRPHACPRP | 0.192
RRIRRRPPRLPRPRPRPHAYPRP | -0.394
RRIRRRPPRLPRPRPRPHDCPRP | 0.00386
RRIRRRPPRLPRPRPRPHEAPRP | 0.0262
RRIRRRPPRLPRPRPRPHEFPRP | 0.0543
RRIRRRPPRLPRPRPRPHGIPRP | 0.0963
RRIRRRPPRLPRPRPRPHINPRP | -0.432
RRIRRRPPRLPRPRPRPHKIPRP | -0.182
RRIRRRPPRLPRPRPRPHKLPRP | 0.022
RRIRRRPPRLPRPRPRPHKNPRP | 0.126
RRIRRRPPRLPRPRPRPHKQPRP | -0.00379
RRIRRRPPRLPRPRPRPHLFPRP | 0.0328
RRIRRRPPRLPRPRPRPHLPPRP | 0.141
RRIRRRPPRLPRPRPRPHLWPRP | 0.25
RRIRRRPPRLPRPRPRPHMIPRP | -0.13

Sequence | shrunken log2 fold change
RRIRRRPPRLPRPRPRPHMKPRP | -0.654
RRIRRRPPRLPRPRPRPHMNPRP | -0.315
RRIRRRPPRLPRPRPRPHNGPRP | -0.172
RRIRRRPPRLPRPRPRPHNQPRP | -0.114
RRIRRRPPRLPRPRPRPHPAPRP | 0.583
RRIRRRPPRLPRPRPRPHSKPRP | -0.198
RRIRRRPPRLPRPRPRPHTQPRP | 0.573
RRIRRRPPRLPRPRPRPHTWPRP | 0.0615
RRIRRRPPRLPRPRPRPHVNPRP | -0.0608
RRIRRRPPRLPRPRPRPHVPPRP | -0.148
RRIRRRPPRLPRPRPRPHWNPRP | -0.159
RRIRRRPPRLPRPRPRPHWPPRP | 0.312
RRIRRRPPRLPRPRPRPHYAPRP | 0.148
RRIRRRPPRLPRPRPRPHYFPRP | -0.173
RRIRRRPPRLPRPRPRPIAVPRP | -0.0851
RRIRRRPPRLPRPRPRPIDCPRP | 0.00203
RRIRRRPPRLPRPRPRPIEIPRP | 0.0138
RRIRRRPPRLPRPRPRPIFDPRP | 0.369
RRIRRRPPRLPRPRPRPIHTPRP | 0.00898
RRIRRRPPRLPRPRPRPIIFPRP | -0.0332
RRIRRRPPRLPRPRPRPIIKPRP | -0.265
RRIRRRPPRLPRPRPRPIKTPRP | 0.00866
RRIRRRPPRLPRPRPRPILYPRP | 0.143
RRIRRRPPRLPRPRPRPIPYPRP | -0.16
RRIRRRPPRLPRPRPRPIQLPRP | -0.407

Sequence | shrunken log2 fold change
RRIRRRPPRLPRPRPRPIQTPRP | 0.00408
RRIRRRPPRLPRPRPRPIRDPRP | 0.196
RRIRRRPPRLPRPRPRPIRIPRP | -0.106
RRIRRRPPRLPRPRPRPIRMPRP | 0.302
RRIRRRPPRLPRPRPRPIRVPRP | 0.244
RRIRRRPPRLPRPRPRPISRPRP | -0.0551
RRIRRRPPRLPRPRPRPISSPRP | 0.0497
RRIRRRPPRLPRPRPRPISWPRP | -0.166
RRIRRRPPRLPRPRPRPITWPRP | -0.0299
RRIRRRPPRLPRPRPRPIWLPRP | 0.0778
RRIRRRPPRLPRPRPRPIYKPRP | -0.394
RRIRRRPPRLPRPRPRPIYRPRP | -0.273
RRIRRRPPRLPRPRPRPIYYPRP | -0.192
RRIRRRPPRLPRPRPRPKAAPRP | 0.596
RRIRRRPPRLPRPRPRPKALPRP | 0.237
RRIRRRPPRLPRPRPRPKCSPRP | 0.504
RRIRRRPPRLPRPRPRPKCVPRP | -0.29
RRIRRRPPRLPRPRPRPKDPPRP | 0.121
RRIRRRPPRLPRPRPRPKDVPRP | 0.159
RRIRRRPPRLPRPRPRPKEEPRP | -0.00663
RRIRRRPPRLPRPRPRPKFDPRP | 0.101
RRIRRRPPRLPRPRPRPKFGPRP | 0.172
RRIRRRPPRLPRPRPRPKGVPRP | 0.401
RRIRRRPPRLPRPRPRPKHAPRP | 0.407
RRIRRRPPRLPRPRPRPKIFPRP | 0.0586
